According to patent US20240279318A1 (NANJING LEGEND BIOTECH, published 2024):
Residue numbers refer to the chain shown, from its start. Where two headings read alike, the source gives them in different places. Each block holds one binder with its values, some of them ahead of it.

Assays:
[1] = target: T1, AFP158/HLA-A*02:01 complex (human); experiment: SPR, crude scFv captured, pMHC analyte
T1 construct: flowed as analyte in SPR
Experimental: (§1) The experiment was carried out as follows. The crude scFv protein were captured onto the sensorchip. Different concentrations (320, 160, 40 nM) of AFP158/HLA-A*02:01 complex flowed over the sensorchip surface, and were allowed to bind the antibody fragment for 100 s followed by injection of the running buffer to allow dissociation of the complex. On-rate (kd) and off-rate (kd) were calculated based on association and dissociation curve, and were used to estimate the equilibrium dissociation constant (KD).
(§2) The crude scFv muteins were then subjected to SPR affinity measurement by the method mentioned above.

[2] = target: T1, AFP158/HLA-A*02:01 complex; experiment: SPR, fold vs AS170036 VL1VH1;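 also: crude scFv muteins immobilised on a sensor chip, peptide–MHC complex passed over at several concentrations, binding then buffer-driven dissociation, KD estimated from on- and off-rates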
Experimental: as §1, §2

[3] = target: T1, AFP158/HLA-A*02:01 complex; experiment: SPR, fold vs AS170036 VL1VH1; remark: listed apart in the source;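 also: crude scFv muteins immobilised on a sensor chip, peptide–MHC complex passed over at several concentrations, binding then buffer-driven dissociation, KD estimated from on- and off-rates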
Experimental: as §1, §2

[4] = target: T1, AFP158/HLA-A*02:01 complex; experiment: SPR, crude scFv captured, pMHC analyte; remark: listed apart in the source
Experimental: as §1, §2

B1: AS170036 VL1VH1-56Y98F (scFv)
scFv: QSALTQPRSVSGSPGQSVTISCAGTSSDVGSENYVSWYQQHPGKAPKLMIYQVNKRASGVPDRFSGSKSGNTASLTISGLQAEDEADYYCASYRSSDFNIVFGGGTKLTVLGGGGSGGGGSGGGGSEVQLVESGGGLVQPGGSLRLSCAASGFTFSSYAMSWVRQAPGKGLEWVSTINSGTYSPYYADSVKGRFTISRDNSKNTLYLQMNSLRAEDTAVYYCAKNFFDGSWFLGPPAMDYWGQGTLVTVSSHHHHHH
notes: also called 01-AS170036 VL1VH1-56Y98F
Kd [1]: 11 nM | koff [1]: 0.0023 s⁻¹ | kon [1]: 220000 M⁻¹ s⁻¹ | Affinity increase [2]: 21 fold

B2: AS170036 VL1VH1-57K98F108A (scFv)
scFv: B1 scFv with Y182G, S183K, G234A
notes: also called 67-AS170036 VL1VH1-57K98F108A
Affinity increase [3]: 64.3 fold | Kd [4]: 3.5 nM | koff [4]: 0.00079 s⁻¹ | kon [4]: 230000 M⁻¹ s⁻¹

B4: AS170036 VL1VH1-57H98Q108A (scFv)
scFv: B1 scFv with F98Q, Y182G, S183H, G234A
notes: also called 64-AS170036 VL1VH1-57H98Q108A
Affinity increase [3]: 128 fold | Kd [4]: 1.8 nM | koff [4]: 0.00041 s⁻¹ | kon [4]: 230000 M⁻¹ s⁻¹

B6: AS170036 VL1VH1-56Y108S (scFv)
scFv: B1 scFv with F98H, G234S
notes: also called 18-AS170036 VL1VH1-56Y108S
Kd [1]: 12 nM | koff [1]: 0.0017 s⁻¹ | kon [1]: 140000 M⁻¹ s⁻¹ | Affinity increase [2]: 19.2 fold

B7: AS170036 VL1VH1-56Y98Q108S (scFv)
scFv: B1 scFv with F98Q, G234S
notes: also called 48-AS170036 VL1VH1-56Y98Q108S
Affinity increase [3]: 67.4 fold | Kd [4]: 3.3 nM | koff [4]: 0.00055 s⁻¹ | kon [4]: 160000 M⁻¹ s⁻¹

B8: AS170036 VL1VH1-56N108D (scFv)
scFv: B1 scFv with F98H, Y182N, G234D
notes: also called 20-AS170036 VL1VH1-56N108D
Kd [1]: 17 nM | koff [1]: 0.0046 s⁻¹ | kon [1]: 270000 M⁻¹ s⁻¹ | Affinity increase [2]: 13.2 fold

B11: AS170036 VL1VH1-56N98Q (scFv)
scFv: B1 scFv with F98Q, Y182N
notes: also called 06-AS170036 VL1VH1-56N98Q
Kd [1]: 23 nM | koff [1]: 0.0058 s⁻¹ | kon [1]: 250000 M⁻¹ s⁻¹ | Affinity increase [2]: 9.7 fold

B12: AS170036 VL1VH1-57H98F108S (scFv)
scFv: B1 scFv with Y182G, S183H, G234S
notes: also called 60-AS170036 VL1VH1-57H98F108S
Affinity increase [3]: 66.2 fold | Kd [4]: 3.4 nM | koff [4]: 0.00068 s⁻¹ | kon [4]: 200000 M⁻¹ s⁻¹

B13: AS170036 VL1VH1-56Y98Q (scFv)
scFv: B1 scFv with F98Q
notes: also called 03-AS170036 VL1VH1-56Y98Q
Kd [1]: 8.7 nM | koff [1]: 0.0016 s⁻¹ | kon [1]: 190000 M⁻¹ s⁻¹ | Affinity increase [2]: 25.8 fold

B14: AS170036 VL1VH1-56Y98Q108D (scFv)
scFv: B1 scFv with F98Q, G234D
notes: also called 47-AS170036 VL1VH1-56Y98Q108D
Affinity increase [3]: 122 fold | Kd [4]: 1.8 nM | koff [4]: 0.00044 s⁻¹ | kon [4]: 240000 M⁻¹ s⁻¹

B18: AS170036 VL1VH1-57H98F108D (scFv)
scFv: B1 scFv with Y182G, S183H, G234D
notes: also called 59-AS170036 VL1VH1-57H98F108D
Affinity increase [3]: 124 fold | Kd [4]: 1.8 nM | koff [4]: 0.00053 s⁻¹ | kon [4]: 290000 M⁻¹ s⁻¹

B20: AS170036 VL1VH1-56Y98I (scFv)
scFv: B1 scFv with F98I
notes: also called 02-AS170036 VL1VH1-56Y98I
Kd [1]: 6.7 nM | koff [1]: 0.0014 s⁻¹ | kon [1]: 210000 M⁻¹ s⁻¹ | Affinity increase [2]: 33.5 fold

The next lines start with the values.

Affinity increase [3]: 16.7 fold | Kd [4]: 14 nM | koff [4]: 0.0021 s⁻¹ | kon [4]: 160000 M⁻¹ s⁻¹
B3: AS170036 VL1VH1-57M98Q108S (scFv)
scFv: B1 scFv with F98Q, Y182G, S183M, G234S
notes: also called 84-AS170036 VL1VH1-57M98Q108S

Affinity increase [3]: 36.2 fold | Kd [4]: 6.2 nM | koff [4]: 0.0018 s⁻¹ | kon [4]: 280000 M⁻¹ s⁻¹
B5: AS170036 VL1VH1-57M98F108D (scFv)
scFv: B1 scFv with Y182G, S183M, G234D
notes: also called 77-AS170036 VL1VH1-57M98F108D

Affinity increase [3]: 21 fold | Kd [4]: 11 nM | koff [4]: 0.0013 s⁻¹ | kon [4]: 120000 M⁻¹ s⁻¹
B9: AS170036 VL1VH1-57K98I108S (scFv)
scFv: B1 scFv with F98I, Y182G, S183K, G234S
notes: also called 72-AS170036 VL1VH1-57K98I108S

Affinity increase [3]: 27 fold | Kd [4]: 8.3 nM | koff [4]: 0.0014 s⁻¹ | kon [4]: 160000 M⁻¹ s⁻¹
B10: AS170036 VL1VH1-57K98F108S (scFv)
scFv: B1 scFv with Y182G, S183K, G234S
notes: also called 69-AS170036 VL1VH1-57K98F108S

Affinity increase [3]: 28 fold | Kd [4]: 8.1 nM | koff [4]: 0.0018 s⁻¹ | kon [4]: 220000 M⁻¹ s⁻¹
B15: AS170036 VL1VH1-57M98I108A (scFv)
scFv: B1 scFv with F98I, Y182G, S183M, G234A
notes: also called 79-AS170036 VL1VH1-57M98I108A

Affinity increase [3]: 18 fold | Kd [4]: 13 nM | koff [4]: 0.0024 s⁻¹ | kon [4]: 190000 M⁻¹ s⁻¹
B16: AS170036 VL1VH1-57M98F108S (scFv)
scFv: B1 scFv with Y182G, S183M, G234S
notes: also called 78-AS170036 VL1VH1-57M98F108S

Affinity increase [3]: 52.6 fold | Kd [4]: 4.3 nM | koff [4]: 0.00082 s⁻¹ | kon [4]: 190000 M⁻¹ s⁻¹
B17: AS170036 VL1VH1-57K98I108A (scFv)
scFv: B1 scFv with F98I, Y182G, S183K, G234A
notes: also called 70-AS170036 VL1VH1-57K98I108A

Affinity increase [3]: 43 fold | Kd [4]: 5.2 nM | koff [4]: 0.0012 s⁻¹ | kon [4]: 220000 M⁻¹ s⁻¹
B19: AS170036 VL1VH1-57M98Q108A (scFv)
scFv: B1 scFv with F98Q, Y182G, S183M, G234A
notes: also called 82-AS170036 VL1VH1-57M98Q108A
